The target in one experiment is T1, PACAP38 (human, K at residue 38 modified by C-terminal amidation).
T1 peptide: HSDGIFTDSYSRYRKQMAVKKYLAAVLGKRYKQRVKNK
In words: cell-based or functional assay.

Another experiment deals with T2, PACAP27 (human, L at residue 27 modified by C-terminal amidation).
T2 peptide: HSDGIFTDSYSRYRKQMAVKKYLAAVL
Nature of the experiment: cell-based or functional assay.

Take IgG4 mAb (negative control) (antibody): in the experiment with PACAP38, the Percentage tryptase release in human mast cells upon addition of 1 uM PACAP38; negative control antibody, single point came out at 104%; the Percentage tryptase release upon addition of PACAP38; negative control antibody dose 153 uM was found to be 79.6%; the Plasma cAMP levels in CD-1 mice after iv PACAP38 (13 nmols/kg); control antibody 10 mg/kg sc amounted to 4.09 µM. For the same substance, in the experiment with PACAP27, the Percentage tryptase release in human mast cells upon addition of 1 uM PACAP27; negative control antibody, single point was determined as 110% and the Percentage tryptase release upon addition of PACAP27; negative control antibody dose 153 uM is 94.8%.
